In patent US20160279215A1, “NOVEL PEPTIDES AND COMBINATION OF PEPTIDES FOR USE IN IMMUNOTHERAPY AGAINST VARIOUS TUMORS” (immatics biotechnologies GmbH, priority 2015, published 2016):

Target: T1, HLA-A*02:01 (human)
T1 construct: MHC monomers captured on streptavidin plates; the UV-sensitive peptide is cleaved and exchanged with the test peptide; also called peptide-receptive MHC molecules; MHC class I
Experiment: UV ligand-exchange ELISA (anti-b2m); ++ = exchange yield >=20%
Description: Candidate peptides for T cell based therapies according to the present invention were further tested for their MHC binding capacity (affinity). The individual peptide-MHC complexes were produced by UV-ligand exchange, where a UV-sensitive peptide is cleaved upon UV-irradiation, and exchanged with the peptide of interest as analyzed. Only peptide candidates that can effectively bind and stabilize the peptide-receptive MHC molecules prevent dissociation of the MHC complexes. To determine the yield of the exchange reaction, an ELISA was performed based on the detection of the light chain (β2m) of stabilized MHC complexes. The assay was performed as generally described in Rodenko et al. (Rodenko et al., 2006).
96 well MAXISorp plates (NUNC) were coated over night with 2 ug/ml streptavidin in PBS at room temperature, washed 4× and blocked for 1 h at 37° C. in 2% BSA containing blocking buffer. Refolded HLA-A*02:01/MLA-001 monomers served as standards, covering the range of 15-500 ng/ml. Peptide-MHC monomers of the UV-exchange reaction were diluted 100 fold in blocking buffer. Samples were incubated for 1 h at 37° C., washed four times, incubated with 2 ug/ml HRP conjugated anti-β2m for 1 h at 37° C., washed again and detected with TMB solution that is stopped with […]. Absorption was measured at 450 nm. Candidate peptides that show a high exchange yield (preferably higher than 50%, most preferred higher than 75%) are generally preferred for a generation and production of antibodies or fragments thereof, and/or T cell receptors or fragments thereof, as they show sufficient avidity to the MHC molecules and prevent dissociation of the MHC complexes.

peptide exchange yield | Binder
20 to 50% | ALYVQAPTV
20 to 50% | ILHGEVNKV
20 to 50% | TLLEGISRA (also called CABY-001)
20 to 50% | FLDGRPLTL
20 to 50% | LLDAAHASI
20 to 50% | KMASKVTQV
20 to 50% | LLFPSDVQTL
20 to 50% | ALLSSVAEA
20 to 50% | SILTNISEV
20 to 50% | SLIEESEEL
20 to 50% | FLFLKEVKV
20 to 50% | VVAAHLAGA
20 to 50% | KLIYKDLVSV
20 to 50% | ALLLRLFTI
20 to 50% | SLYKSFLQL
20 to 50% | GIINKLVTV
20 to 50% | QIQGQVSEV
20 to 50% | NIDINNNEL

Target: T1, HLA-A*02:01
Experiment: UV ligand-exchange ELISA (anti-b2m); +++ = exchange yield >=50
Procedure, shortened: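 Binding capacity assessed as exchange yield: only peptides that stabilize peptide-receptive HLA-A*02:01 prevent complex dissociation after UV cleavage of the conditional ligand. Intact complexes were detected via β2m by ELISA.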

peptide exchange yield | Binder
50 to 75% | FTAEFLEKV
50 to 75% | LLLPLELSLA
50 to 75% | HLLGEGAFAQV
50 to 75% | TLFGIQLTEA
50 to 75% | QLMNLIRSV
50 to 75% | SLVENIHVL
50 to 75% | YLDEVAFML
50 to 75% | SLLEVNEASSV
50 to 75% | KISDFGLATV
50 to 75% | ILAEEPIYIRV
50 to 75% | QLIEKNWLL
50 to 75% | KLIDEDEPLFL
50 to 75% | ALLQALMEL
50 to 75% | LLDPKTIFL (also called HAVCR1-001)
50 to 75% | ALYPKEITL
50 to 75% | SLITGQDLLSV
50 to 75% | GLYPVTLVGV
50 to 75% | YLFSQGLQGL

peptide exchange yield | Binder
50 to 75% | ALQSFEFRV
50 to 75% | FIANLPPELKA
50 to 75% | FLIENLLAA
50 to 75% | ALLDGALQL
50 to 75% | ALYGNVQQV
50 to 75% | KLLSLLEEA
50 to 75% | ALADGIKSFLL
50 to 75% | YLVPGLVAA
50 to 75% | GLNGFNVLL
50 to 75% | VLTGQVHEL
50 to 75% | HLFDKIIKI
50 to 75% | ILLSVLHQL
50 to 75% | KLLPMVIQL
50 to 75% | SLFSNIESV
50 to 75% | KLFEKSTGL
50 to 75% | ILGSFELQL
50 to 75% | SLAETIFIV (also called HTR3A-001)
50 to 75% | FVQEKIPEL
